Consider two molecules from paper doi:10.1101/2022.11.20.517165.

The target of test [1] is Toc90 (Chlamydomonas reinhardtii). The test is described as follows: cryo-EM structure.
Test [2] concerns the target Toc75 (Chlamydomonas reinhardtii). The test is described as follows: cryo-EM structure.

In general, stoichiometry N refers to a count of units in the complex or per binding partner. Take Toc75 (natural protein): in test [1], the stoichiometry N came out at 1.

B1: Toc34 (natural protein)
chain: MAQPPRPAEEYDDDVQEDEDELKEGELDDDESHEAASEGGEAAAGDEEAEDDEQDEEDGDEDSQPWAGLNRLPERDDMLDILNELRAEGRKQLTVLLLGKSSVGKSSLINSLLGEAVVRVQAFKLQADTDITTTVVRQVAVGNSEVDGFRLKLIDTCGLEDPEAGDTVNLGALSKIAEDVRGVGIDVVLYCDRLDLYRVDPLDKAIIDAISSTFGRGIWRRTVVALTHANLVQTPPGTDYDSFVNGRVRLIRGAVRGPLFFRPSLPVALVENSETCPVSSESGFRVLPDGEPWLVALVSQLVDMAAARRRPYKYHPRLSSKPSHRFRWLLPVAIAAEVLFYRRFLHPRLDDNQRRVEREEERVWALRGQQRRALGLHRPHRPDKDAAWRLEQMYDDD
In turn, B1 showed a stoichiometry N in test [2] of 1.
